Results from patent US20240336664A1, “SULFATED POLYPEPTIDES FOR SYSTEMIC DELIVERY” (priority 2021, published 2024).

System: C2C12 mouse myoblasts
Test: Luciferase reporter expression from muscle promoters
Format: cell-based
Details: 48 hours post transfection, FIG. 6
Text: The present Example includes the recognition that certain promoters utilized herein have advantageous characteristics for expression of operably linked coding sequences in muscle cells, as exemplified in the present Example in C2C12 mouse myoblasts as a representative muscle cell type. In the present Example, a luciferase reporter construct was expressed in C2C12 mouse myoblasts using each of three promoters. Cells were mock transfected or transfected with vectors expressing luciferase using Lipofectamine LTS Plus reagent in a 96-well plate. 48 hours post transfection luciferase activity was measured using ONE-Glo™ Luciferase Assay System (E6110, Promega).

B1: SEQ ID NO: 3: promoter nucleic acid sequence driving a luciferase expression construct in muscle cells (nucleic acid)
DNA: CAGGCCCTGTAACTTTTCCAATAAAATATTCTATTAGAAACAAGTTCCTTCTAGATCTTCCTAAAAGAATACTAAAGGACCAAACCGTGCAACAGCACTGGTGGTATTGTCTTAATTTAGAGAGTCCATACCAGTGATTCTCAAACATTAGTATGCTCAGAGTTTCTGGTTCAATAGGTCTGGGCCGGGCCCAGGGAATTTTCATTTCTAAGAAGTTCGCAGGTGATACTGATAACTGCTGTTCCCAGGGTCTACATTTTGAGATCCGCTGCTATGTCACAAATCCAAATCCAAAGTCTTTTTAACAATCCCTTTTAGCCCAGGATGAGCCTAACGGCAATTTCACGTCCTTATCGCCGGCCACTTTAATCTTCAACTGAGGAGGAAGGGAGAGTGAGAATTATGTATATAATTTTTTTCTTTTATTTTTTAAAAAGAAAACTCCAAGCCCACACTCTTAATTATCTGGGATGAGGTCATTTGCACCTGGGTCATTTATTTAGACAACAAGTAGTCTTGCTAGAGGCTTTAAGGAGGTGTTAGCAGAGCGGTGTGTGGCTTCCAGGTTCCTGGGTCTACCTTAAATCCCCATCCTCTTTCTTTCTTTCTTTCTTTCTTTCTTTCTCTTTTCTTTTTCCTTTCCGTTTTGAAAGCCCCAACTGCCCAGTCTCTGGGTGTCCGGGTTCCCAGGTCCCTAGGTGGGGGCGGAGCCCGACACGGCCCCGCCCCGTCTGCCCGCAGCGCCCCCTCCCCGGCCCGCCCGCGCCGGCTCCTCCGCAGTGCTTTCAGCTGTGAGCTTGGGCGGCGGCGGCGGCGGCGCTCCACTTTCGGGGAGCCCGGCGGCTCTGGGAAGCTCACTCCTCCACTCGTACCCACACTCGACCGCGGAGCCCTTGCAGCCATGAGGGAACAGCTCAAAGGGTAAGTGGA
  luciferase expression vs promoters SEQ ID NO: 4 and SEQ ID NO: 5 and mock: substantially greater expression
